Legend:
clone C2 = experiment: Effects of EGF and PDGF on proliferation and survival, clone C2; type: cell-based, human; details: added to growth medium with FGF-2 and 50% CM, EGF 40 ng/mL, PDGF 20 ng/mL
Description: (§1) EGF and PDGF Enhance Proliferation Rate and Cell Survival. To facilitate the expansion of the human CNS clones, we identified factors that increase the proliferation rate and/or cell survival. To examine the effects of EGF and PDGF on the proliferation and survival of the human CNS clones, 40 ng/mL EGF, 20 ng/mL PDGF or both were added to the standard growth medium, which already contained FGF-2 and 50% CM, and total cell number and BrdU uptake and incorporation were assessed as described above. For clone C2, EGF or PDGF addition increased the total cell number (FIG. 11A) by approximately 2-fold. This increase in cell number was due to enhanced cell viability (decreased cell death), since there were only slight increases in proliferation rate (assessed by BrdU uptake and incorporation, FIG. 11B). […] In the case of clone C10, EGF (but not PDGF) addition increased the total cell number (FIG. 12A) by approximately 40%. […] This increase in cell number was due, at least in part, to enhanced proliferation rates; BrdU uptake and incorporation increase about 2-fold with EGF or EGF+PDGF addition (FIG. 12B), and doubling times (based on cell counts as a function of days in vitro, data not shown) decreased from 3 days (no EGF or PDGF addition) to 2 days (EGF+PDGF addition). […]

clone C10 = experiment: Effects of EGF and PDGF on proliferation and survival, clone C10; type: cell-based, human
Description: as §1

B1: EGF: human recombinant epidermal growth factor (protein, UniProt P01133 23-1207, looked up)
Pro-epidermal growth factor: PQHWSCPEGTLAGNGNSTCVGPAPFLIFSHGNSIFRIDTEGTNYEQLVVDAGVSVIMDFHYNEKRIYWVDLERQLLQRVFLNGSRQERVCNIEKNVSGMAINWINEEVIWSNQQEGIITVTDMKGNNSHILLSALKYPANVAVDPVERFIFWSSEVAGSLYRADLDGVGVKALLETSEKITAVSLDVLDKRLFWIQYNREGSNSLICSCDYDGGSVHISKHPTQHNLFAMSLFGDRIFYSTWKMKTIWIANKHTGKDMVRINLHSSFVPLGELKVVHPLAQPKAEDDTWEPEQKLCKLRKGNCSSTVCGQDLQSHLCMCAEGYALSRDRKYCEDVNECAFWNHGCTLGCKNTPGSYYCTCPVGFVLLPDGKRCHQLVSCPRNVSECSHDCVLTSEGPLCFCPEGSVLERDGKTCSGCSSPDNGGCSQLCVPLSPVSWECDCFPGYDLQLDEKSCAASGPQPFLLFANSQDIRHMHFDGTDYGTLLSQQMGMVYALDHDPVENKIYFAHTALKWIERANMDGSQRERLIEEGVDVPEGLAVDWIGRRFYWTDRGKSLIGRSDLNGKRSKIITKENISQPRGIAVHPMAKRLFWTDTGINPRIESSSLQGLGRLVIASSDLIWPSGITIDFLTDKLYWCDAKQSVIEMANLDGSKRRRLTQNDVGHPFAVAVFEDYVWFSDWAMPSVMRVNKRTGKDRVRLQGSMLKPSSLVVVHPLAKPGADPCLYQNGGCEHICKKRLGTAWCSCREGFMKASDGKTCLALDGHQLLAGGEVDLKNQVTPLDILSKTRVSEDNITESQHMLVAEIMVSDQDDCAPVGCSMYARCISEGEDATCQCLKGFAGDGKLCSDIDECEMGVPVCPPASSKCINTEGGYVCRCSEGYQGDGIHCLDIDECQLGEHSCGENASCTNTEGGYTCMCAGRLSEPGLICPDSTPPPHLREDDHHYSVRNSDSECPLSHDGYCLHDGVCMYIEALDKYACNCVVGYIGERCQYRDLKWWELRHAGHGQQQKVIVVAVCVVVLVMLLLLSLWGAHYYRTQKLLSKNPKNPYEESSRDVRSRRPADTEDGMSSCPQPWFVVIKEHQDLKNGGQPVAGEDGQAADGSMQPTSWRQEPQLCGMGTEQGCWIPVSSDKGSCPQVMERSFHMPSYGTQTLEGGVEKPHSLLSANPLWQQRALDPPHQMELTQ
modifications: Pro-epidermal growth factor
Clone C2
  increase in total cell number: approximately 2 fold
Clone C10
  increase in BrdU uptake and incorporation: approximately 2 fold
Clone C10; EGF 40 ng/mL added to growth medium with FGF-2 and 50% CM
  increase in total cell number: approximately 40%
